As a reminder, the Kd is the equilibrium constant for the complex coming apart. High values mean weaker binding, low ones tighter binding.

Experimental findings from patent US20160368985A1 are described below.

For one experiment, the target named is human CD3ε (human) (UniProt P07766). Kind of experiment: BIACORE and Scatchard; monovalent KD of anti-CD3 arm; legend prints 2.5 nM.
Experiment [1] addresses truncated human FcRH5 (deletion of amino acids 1-744) with N-terminal gD tag (human) (UniProt Q96RD9). As to the kind of experiment: cell-based or functional assay.

Sequence of truncated human FcRH5 (deletion of amino acids 1-744) with N-terminal gD tag (human) (Q96RD9 745-977, stated change not applied): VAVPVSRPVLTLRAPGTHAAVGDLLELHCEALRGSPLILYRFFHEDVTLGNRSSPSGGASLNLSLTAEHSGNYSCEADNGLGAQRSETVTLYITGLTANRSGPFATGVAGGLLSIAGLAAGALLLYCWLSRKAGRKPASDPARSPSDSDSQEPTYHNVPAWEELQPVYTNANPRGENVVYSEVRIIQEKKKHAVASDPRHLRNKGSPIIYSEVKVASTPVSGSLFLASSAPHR
Sequence of human CD3ε (human) (P07766 22-126): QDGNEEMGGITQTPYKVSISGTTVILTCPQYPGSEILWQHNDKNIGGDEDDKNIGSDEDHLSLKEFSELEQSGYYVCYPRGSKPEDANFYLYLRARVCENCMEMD

Regarding anti-CD3 antibody huUCHT1.v9, in the experiment with human CD3ε (human), the Kd was found to be 2 nM. As to “anti-gD/UCHT1.v9 TDB (bispecific antibody)”, in experiment [1], the killing of cells expressing the truncated target, EC50 stood at 0.19 nM.
